According to patent publication US20190060453A1 (ONCOMED PHARMACEUTICALS, published 2019):
Substitutions are numbered along the chain they refer to. Values belong to the binder of their own block, whether it stands above or below them.

Columns and labels:
[1] = biological target: T1, murine DLL4-Fc (murine, UniProt Q9JI71 27-525, limits assumed); assay: FACS-based assay with human or murine DLL4-Fc (FIG. 2B)
T1 construct: also called m-DLL4; not shown: Fc
Source text: Binding was detected by fluorescently labeled anti-Fc and analyzed by FACS, with high fluorescence intensity indicative of binding between DLL4 and Notch1 expressing cells.

[2] = biological target: T2, human DLL4 aa 1-251 fused to Fc (human, UniProt Q9NR61 27-251); assay: ELISA, Fc fusion captured by anti-human Fc
T2 construct: Predicted signal peptide 1-26 left out; also called aa 1-251 (printed as 1-251); not shown: Fc protein
Procedure: (§1) To identify antibodies that recognize specific regions of the DLL4 extracellular domain, epitope mapping was performed. Mammalian expression plasmid vectors comprising a CMV promoter upstream of polynucleotides that encode a nested series of deletion fragments of the extracellular domain of DLL4 fused to Fc protein were generated using standard recombinant DNA technology. Additional constructs that encoded fragments of DLL4 that were chimera of human and mouse DLL4 fused to Fc protein were also generated using standard recombinant DNA technology. A further series of DLL4-fc fusion proteins were designed that included specific amino acid substitutions. These recombinant fusion proteins were expressed in transiently transfected HEK 293 cells from which conditioned medium was collected twenty-four to forty-eight hours post-transfection for ELISA. The DLL4 fusion protein fragments were captured on plates coated with anti-human Fc antibodies. Anti-DLL4 antibodies were then allowed to interact with the bound DLL4 fragments and binding was measured by subsequent incubation with HRP conjugated anti-mouse antibody and detection of HRP activity (FIG. 3A). […] Additionally, anti-DLL4 mAbs were examined for binding to DLL4 fusion protein fragments by western blot analysis (FIG. 3B).

[3] = biological target: T3, human DLL4 aa 1-283 fused to Fc (human, UniProt Q9NR61 27-283); assay: ELISA, Fc fusion captured by anti-human Fc
T3 construct: Predicted signal peptide 1-26 left out; not shown: Fc protein
Procedure: as §1

[4] = biological target: T4, human DLL4 aa 1-217 fused to Fc (human, UniProt Q9NR61 27-217); assay: ELISA, Fc fusion captured by anti-human Fc
T4 construct: predicted signal peptide 1-26 left out; also called hDLL4dom1-3; not shown: Fc protein
Procedure: as §1

[5] = biological target: T5, human DLL4 aa 1-323 fused to Fc (human, UniProt Q9NR61 27-323); assay: ELISA, Fc fusion captured by anti-human Fc
T5 construct: Predicted signal peptide 1-26 left out; also called aa 1-323 (printed as 1-323); not shown: Fc protein
Procedure: as §1

[6] = biological target: T6, human DLL4 aa 1-96 fused to Fc (human, UniProt Q9NR61 27-96); assay: ELISA, Fc fusion captured by anti-human Fc
T6 construct: Printed as aa 1-96; not shown: Fc protein (human Fc by the capture and detection reagents)
Procedure: as §1

[7] = biological target: T7, human DLL4 aa 1-154 fused to Fc (human, UniProt Q9NR61 27-154); assay: ELISA, Fc fusion captured by anti-human Fc
T7 construct: predicted signal peptide 1-26 left out; also called h-DLL4 dom1-2; not shown: Fc protein
Procedure: as §1

[8] = biological target: T8, human DLL4, full-length, on the surface of transfected cells (human, UniProt Q9NR61 27-685); assay: FACS on HEK 293 cells co-transfected with full-length DLL4 and GFP
T8 construct: whole, on cells; HEK 293 cells (transient with GFP, or stably transduced) and 3T3 cells overexpressing human DLL4; also called native cell-surface DLL4 protein; Delta-like ligand 4

[9] = biological target: T9, DLL4 antigen protein (recombinant fragment of the extracellular domain of human DLL4, amino acids 1-522, Fc- … (human, UniProt Q9NR61 27-522)); assay: Biacore; antibody purified by protein A; DLL4 form and format not stated
T9 construct: also called Human DLL4 Antigen; not shown: human Fc-tag or histidine-tag

[10] = biological target: T9, DLL4 antigen protein (recombinant …); assay: ELISA of conditioned medium, HEK 293 cells cotransfected with the murine 21M18 light chain
Procedure: The functionality of each candidate variant humanized heavy and light chain was tested by cotransfection into mammalian cells.

[11] = biological target: T9, DLL4 antigen protein (recombinant …); assay: ELISA of conditioned medium, HEK293 cells
Source text: These heavy chains were cotransfected into HEK293 cells with L2, and conditioned media was again assayed.

T1 sequence (Q9JI71 27-525 limits assumed): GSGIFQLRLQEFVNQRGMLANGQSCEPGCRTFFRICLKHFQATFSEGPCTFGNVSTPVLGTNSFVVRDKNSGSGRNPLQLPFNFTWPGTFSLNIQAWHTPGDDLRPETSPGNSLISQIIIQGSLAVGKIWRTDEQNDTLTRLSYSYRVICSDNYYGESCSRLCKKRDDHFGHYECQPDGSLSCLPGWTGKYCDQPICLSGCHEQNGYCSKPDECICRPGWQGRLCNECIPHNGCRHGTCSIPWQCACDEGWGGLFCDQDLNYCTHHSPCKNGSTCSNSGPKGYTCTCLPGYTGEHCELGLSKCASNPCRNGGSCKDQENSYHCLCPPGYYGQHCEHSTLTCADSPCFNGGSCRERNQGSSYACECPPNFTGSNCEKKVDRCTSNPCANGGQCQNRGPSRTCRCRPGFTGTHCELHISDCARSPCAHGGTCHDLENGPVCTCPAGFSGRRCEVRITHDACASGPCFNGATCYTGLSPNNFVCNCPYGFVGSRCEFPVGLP

binding result [1]: no binding | binding result [2]: binds | binding result [3]: binds | binding result [4]: binds | binding result [5]: binds | binding result [6]: no binding | binding result [7]: no binding | binding result [8]: binds
B1: murine monoclonal antibody 21M18 (antibody, V domains shown)
VH: EVQLQQSGPELVKTGASVKISCKASGYSFTAYYIHWVKQSHGKSLEWIGYISCYNGATNYNQKFKGKATFTVDTSSSTAFMQFNSLTSEDSAVYYCARDYDYDVGMDYWGQGTSVTVSS
VL: not shown
notes: Hybridoma-derived mouse antibody; both are alignment entries; also called m21M18; anti-DLL4 21M18

Kd [9]: ~0.33 nM
B2: humanized 21M18 variant H2L2 (antibody, V domains shown)
VH: QVQLVQSGAEVKKPGASVKISCKASGYSFTAYYIHWVKQAPGQGLEWIGYISCYNGATNYNQKFKGRVTFTTDTSTSTAYMELRSLRSDDTAVYYCARDYDYDVGMDYWGQGTLVTVSS
VL: DIVMTQSPDSLAVSLGERATISCRASESVDNYGISFMKWFQQKPGQPPKLLIYAASNQGSGVPDRFSGSGSGTDFTLTISSLQAEDVAVYYCQQSKEVPWTFGGGTKVEIK
notes: also called 21M18 H2L2; 21M18 H2 with 21M18 L2

binding result [10]: binds
B3: 21M18 H2 humanized heavy chain cotransfected with the murine 21M18 light chain (antibody, V domains shown)
VH: B2 VH
VL: not shown
notes: Tested as conditioned medium of HEK 293 cells; heavy chain on human IgG2 constant region; also called 21M18 H2 (with murine 21M18 light chain)

binding result [11]: binds
B4: humanized 21M18 H7L2 (antibody, human IgG2, V domains shown)
VH: B2 VH with C53S
VL: B2 VL
notes: Variant of H2 with Kabat 52a Cys changed to Ser; also called H7L2 21M18; ATCC PTA-8425

binding result [11]: binds
B5: humanized 21M18 H9L2 (antibody, human IgG2, V domains shown)
VH: B2 VH with C53V
VL: B2 VL
notes: Variant of H2 with Kabat 52a Cys changed to Val; also called ATCC PTA-8427
